According to article PMC11656743:
Values joined by “and” are separate entries in the source; they are usually repeats but may differ in a detail not shown here. Identical values can stand only once.

Key:
[1] = biological target: MoaB2 with C-terminal His-tag, for crystallography (strain LK2615) (M. smegmatis); test: dynamic light scattering; 5 mg/mL MoaB2 in 20 mM Tris-HCl pH 8.0, 50 mM NaCl, 3 mM NaN3, 25°C
[2] = biological target: MoaB2 with C-terminal His-tag, for crystallography (strain LK2615) (M. smegmatis); test: crystal structure; X-ray, 2.53 Å; crystals from 0.2 M calcium chloride, 14% PEG 400, 0.1 M sodium-HEPES pH 7.5
[3] = biological target: MoaB2, recombinant, tag cleaved (strain LK2936) (M. smegmatis) (UniProt A0R3I5); test: SEC; Superdex 200 Increase 10/300, 25 mM Tris-HCl pH 7.5, 50 mM NaCl, 1 mM DTT, 15°C; fractions on SDS-PAGE
[4] = biological target: σ^A, recombinant, tag cleaved (strain LK2832) (M. smegmatis) (UniProt A0QW02); test: AUC; multi-signal sedimentation velocity (absorbance 280 nm and interference) at σ^A:MoaB2 molar ratio 1:0.3
[5] = biological target: MoaB2, recombinant, tag cleaved (strain LK2936) (M. smegmatis) (UniProt A0R3I5); test: AUC; sedimentation velocity, 20°C, 50 mM HEPES pH 7.5, 100 mM NaCl, 0.5 mM TCEP, 3 mM NaN3; σ^A 19.4 µM, MoaB2 77.6 µM, σ^A:MoaB2 mixtures 1:0.1 to 1:4
[6] = biological target: σ^A, recombinant, tag cleaved (strain LK2832) (M. smegmatis) (UniProt A0QW02); test: as above

Row | Substance | stoichiometry N [1] | stoichiometry N [2] | stoichiometry N [3] | stoichiometry N [4] | stoichiometry N [5] | Kd [6] | stoichiometry N [6]
1 | MoaB2 with C-terminal His-tag, for crystallography (strain LK2615) (natural protein) | 6 | 6 |  |  |  |  | 
2 | MoaB2, recombinant, tag cleaved (strain LK2936) (from UniProt A0R3I5 1-178) (natural protein) |  |  | 6 | 1 σ^A:MoaB2 | 6 and 3 | < 1 µM | 1 σ^A:MoaB2
